The target in test [1] is scTCR-AGD-CD4TM-hζ (human) (UniProt P01730). As to the kind of experiment: flow cytometry, 293H cells transfected with scTCR-AGD-CD4TM-hζ; bar marked **. Reference bars: 293H 1.1, Control vector 1.4. (A flow cytometer gives signals particle by particle.)
Another test has as its target scTCR-CD4TM-hζ (human) (UniProt P01730). As to the kind of experiment: flow cytometry, 293H cells transfected with scTCR-CD4TM-hζ. Reference bars: 293H 1.1, Control vector 1.4.
Test [2] addresses MA scTCR (single chain Vα23.1Jα14.3-linker-Vβ8.3DβJβ1.2-Cβ2 fused through a thrombin-site linker to the murine CD3 ξ chain), displayed on transfected RBL or BWZ cells (human; mouse). The experiment in a line: flow cytometry, 293H cells transfected with scTCR; bar marked **. Reference bars: 293H 1.1, Control vector 1.4.

Regarding anti-TCR βF1 antibody, the Fold increase in MFI in test [1] turned out to be 6.5 fold; in the test with scTCR-CD4TM-hζ (human) it was 2.1 fold; in test [2] it was 4.4 fold.
